According to article PMC533864, “Selective inhibition of c-Myb DNA-binding by RNA polymers”:

Assays:
c-Myb R2R3 = c-Myb R2R3 (Homo sapiens, UniProt P10242 89-192); assay: EMSA; 20 mM Tris-HCl pH 8.0, 0.1 mM EDTA, 10% glycerol, 0.1 mM DTT, 0.005% Triton X-100, 50 mM NaCl, RNAguard 6-20 U, 20 uL, 25 C, 15 min; conditions: protein: recombinant; label: 32P
c-Myb NR1R2R3 = c-Myb NR1R2R3 (Homo sapiens, UniProt P10242 1-192); assay: as above; conditions: protein: recombinant; label: 32P
Chain of c-Myb NR1R2R3 (P10242 1-192): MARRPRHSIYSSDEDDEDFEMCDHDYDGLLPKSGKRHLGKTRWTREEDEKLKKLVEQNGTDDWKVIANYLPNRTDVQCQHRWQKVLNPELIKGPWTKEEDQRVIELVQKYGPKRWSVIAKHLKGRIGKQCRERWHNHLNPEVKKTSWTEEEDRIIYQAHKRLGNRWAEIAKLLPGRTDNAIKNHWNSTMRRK

Chain of c-Myb R2R3 (P10242 89-192): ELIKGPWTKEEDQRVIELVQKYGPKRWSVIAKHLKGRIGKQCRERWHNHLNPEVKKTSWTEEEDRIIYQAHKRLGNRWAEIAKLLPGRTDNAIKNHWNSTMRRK

B1: MRE probe (mim-1 promoter) (dsDNA)
DNA 1: GCATTATAACGGTTTTTTAGCGC
DNA 2: GCGCTAAAAAACCGTTATAATGC
binding result (c-Myb R2R3): binds | binding result (c-Myb NR1R2R3): binds
